Data: US20170145112A1 (Genentech, published 2017)
Changes are numbered by the printed parent chain. In names and notes the source's numbering stands.

T1: Cynomolgus monkey complement Factor D (cynomolgus monkey, UniProt P00746 26-253 (human entry))
T1 construct: also called cyfD; cFD
T1 chain: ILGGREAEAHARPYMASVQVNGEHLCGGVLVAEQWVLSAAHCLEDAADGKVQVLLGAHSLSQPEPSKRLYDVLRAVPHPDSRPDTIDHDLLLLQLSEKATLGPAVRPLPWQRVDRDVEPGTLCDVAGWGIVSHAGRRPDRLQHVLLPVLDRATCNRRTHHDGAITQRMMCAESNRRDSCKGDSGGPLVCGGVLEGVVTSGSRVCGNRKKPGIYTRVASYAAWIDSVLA

B1: hu20D12.v2.15 Fab (Fab, V domains shown)
VH: EVQLVQSGAEVKKPGASVKVSCKASGYTFTSYYMYWVRQAPGQGLEWIGEINPYSGETNFNEKFKSRATLTVDTSTSTAYLELSSLRSEDTAVYYCAREGGFAYWGQGTLVTVSS
VL: DIQMTQSPSSLSASVGDRVTITCKASQNVDTDVAWFQQKPGKAPKGLIRSASSRYSGVPSRFSGSGSGTDFTLTISSLQPEDFATYYCQQYNNYPLTFGQGTKVEIKR
B2: hu20D12.v2.14 Fab (Fab, V domains shown)
VH: B1 VH with Y54T
VL: B1 VL
B3: AFD.v8 Fab (Fab, V domains shown)
VH: EVQLVQSGPELKKPGASVKVSCKASGYTFTNYGMNWVRQAPGQGLEWMGWINTYTGETTYAEDFKGRFVFSLDTSVSTAYLQISSLKAEDTAVYYCEREGGVNNWGQGTLVTVSS
VL: DIQVTQSPSSLSASVGDRVTITCITSTSIESDMNWYQQKPGKVPKLLISGGNTLRPGVPSRFSGSGSGTDFTLTISSLQPEDVATYYCLQSDSLPYTFGQGTKVEIKR
notes: Variant of lampalizumab
B4: AFD.v14 Fab (Fab, V domains shown)
VH: B3 VH with N103S
VL: B3 VL
notes: Variant of lampalizumab; also called SIESD.N103S
B5: Lampalizumab (Fab, V domains shown)
VH: B3 VH with E62D
VL: B3 VL with S28D, E30D, S31D
notes: Humanized anti-Factor D Fab fragment; also called aFD.WT; FCFD4515S
B6: hu20D12.v2.11 Fab (Fab, V domains shown)
VH: B1 VH with Y54T, E57G
VL: B1 VL with R49Y, Y55R
B7: hu20D12.v2.4 Fab (Fab, V domains shown)
VH: B1 VH with Y54T
VL: B1 VL with R49Y
B8: hu20D12.v2.8 Fab (Fab, V domains shown)
VH: B1 VH with Y54T, E57G
VL: B1 VL with R49Q
B9: hu20D12.v2.2 Fab (Fab, V domains shown)
VH: B1 VH with Y54T, E57D
VL: B1 VL with R49Y
B10: hu20D12.v2.9 Fab (Fab, V domains shown)
VH: B1 VH with E50W, Y54T, E57G
VL: B1 VL with R49Y
B11: hu20D12.v2.12 Fab (Fab, V domains shown)
VH: B1 VH with E57G
VL: B1 VL
B12: hu20D12.v2.10 Fab (Fab, V domains shown)
VH: B1 VH with Y54T, E57G
VL: B1 VL with R49Y, Y55K
B13: hu20D12.v2.5 Fab (Fab, V domains shown)
VH: B1 VH with E57G
VL: B1 VL with R49Y
B14: hu20D12.v2.6 Fab (Fab, V domains shown)
VH: B1 VH with Y54T, E57G
VL: B1 VL with R49S
B15: hu20D12.v2.13 Fab (Fab, V domains shown)
VH: B1 VH with Y54T, E57G
VL: B1 VL with N92E
B16: hu20D12.v2.7 Fab (Fab, V domains shown)
VH: B1 VH with Y54T, E57G
VL: B1 VL with R49K
B17: hu20D12.v2.3.C + PEG tetramer (Fab, V domains shown)
VH: B1 VH with E57D
VL: B1 VL
modifications: C-terminal Cys linked through maleimide to 40K-tetramer-PEG (Sunbright PTE-400MA)
B18: AFD.v8.C + PEG tetramer (Fab, V domains shown)
VH: B3 VH
VL: B3 VL
modifications: C-terminal Cys linked through maleimide to 40K-tetramer-PEG (Sunbright PTE-400MA)
B19: AFD.v14.C + PEG tetramer (Fab, V domains shown)
VH: B3 VH with N103S
VL: B3 VL
modifications: C-terminal Cys linked through maleimide to a PEG tetramer
B20: hu20D12.v2.3.C+TP-Oct (Fab, V domains shown)
VH: B1 VH with E57D
VL: B1 VL
modifications: C-terminal Cys (Cys-226, EU numbering) linked through maleimide to a 40K eight-armed PEG with tripentaerythritol (TP) core
B21: hu20D12.v2.1.C+TP-Oct (Fab, V domains shown)
VH: B1 VH with Y54T, E57G
VL: B1 VL
modifications: C-terminal Cys (Cys-226, EU numbering) linked through maleimide to a 40K eight-armed PEG with tripentaerythritol (TP) core

Target: T1, Cynomolgus monkey complement Factor D
Experiment: SPR (Biacore T200), Fab format; cynomolgus Factor D (column 'KD (pM) cFD (cyno)')

Kd [pM]	Binder
27	B1
50	B2
24	B3
56	B4
30	B5

target: T2, Human complement Factor D, mature (human, UniProt P00746 27-253); experiment: SPR (Biacore T200): Fab captured with anti-huFab kit, human Factor D injected, 25 C, 1:1 model;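 note: sensorgrams were corrected by subtracting a blank injection of running buffer before fitting kinetic and affinity constants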
T2 construct: In the TR-FRET assay the factor D was bought from Complement Technology; In the hemolysis assay it was the factor D of C1q-depleted human serum; also called human Factor D; hFD
Method: (§1) Kinetics and binding constant KD for Factor D binding to immobilized hu20D12 versions was determined by surface plasmon resonance (SPR) measurements on a Biacore®T200 instrument. […] After subtraction of the sensorgram observed for injection of running buffer, data were analyzed according to a 1:1 model using BiaEval software v4.1 (GE Healthcare) to extract the kinetics and affinity constants.

Kd [pM]	koff [s⁻¹]	kon [M⁻¹ s⁻¹]	Binder
10000	0.03	3e+06	B6
< 10	6e-05	1.9e+07	B1
28	0.00049	1.7e+07	B7
61	0.004	6.6e+07	B8
< 10	8e-05	1.5e+07	B2
65	0.00095	1.5e+07	B9
185	0.0063	3.4e+07	B10
< 10	0.00015	1.8e+07	B11
6000	0.03	5e+06	B12
45	0.00079	1.7e+07	B13
143	0.0003	2.1e+06	B14
< 10	0.00013	4.1e+07	B15
49	0.00055	1.1e+07	B16
10.5	0.00021	2e+07	B3
23.3	0.00021	9e+06	B4

target: T2, Human complement Factor D, mature; experiment: cell-based or functional assay
Target sequence in this assay (P00746 27-253): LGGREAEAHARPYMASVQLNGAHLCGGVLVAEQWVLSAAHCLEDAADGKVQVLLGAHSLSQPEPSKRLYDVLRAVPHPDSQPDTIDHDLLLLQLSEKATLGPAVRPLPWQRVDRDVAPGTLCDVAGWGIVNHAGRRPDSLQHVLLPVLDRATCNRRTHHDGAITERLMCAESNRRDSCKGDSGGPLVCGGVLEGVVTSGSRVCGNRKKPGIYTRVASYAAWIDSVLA

AVG IC50 (pM), TR-FRET assay of Factor D-dependent factor B activation [pM]	Binder
35.2	B17
11	B18
14.8	B19
27.6	B3
34	B4

target: T2, Human complement Factor D, mature; experiment: cell-based or functional assay; remark: another data set of the same source
Target sequence in this assay (P00746 27-253): as above

IC50, TR-FRET assay of Factor D (50 pM) cleavage of factor B [pM]	Binder
13	B20
31	B21
26	B4

target: T2, Human complement Factor D, mature; experiment: cell-based or functional assay; remark: another data set of the same source

FRET IC50 (TR-FRET assay of Factor D-dependent factor B activation) [pM]	FRET IC50 (TR-FRET assay of Factor D-dependent factor B activation), value 1 of 2 in the cell [pM]	FRET IC50 (TR-FRET assay of Factor D-dependent factor B activation), value 2 of 2 in the cell [pM]	FRET IC50 (TR-FRET assay of Factor D-dependent factor B activation), value 1 of 3 in the cell [pM]	FRET IC50 (TR-FRET assay of Factor D-dependent factor B activation), value 2 of 3 in the cell [pM]	FRET IC50 (TR-FRET assay of Factor D-dependent factor B activation), value 3 of 3 in the cell [pM]	Binder
24	–	–	–	–	–	B1
25	–	–	–	–	–	B2
–	21	28	–	–	–	B3
–	–	–	25	34	26	B4

target: T2, Human complement Factor D, mature; experiment: SPR, at the limit of detection
Target sequence in this assay (P00746 27-253): as above
Method: as §1

Kd [pM]	Binder
~10	B1
~10	B2
~10	B11
~10	B15
